According to patent US20220112288A1 (published 2022):

These binders were tested against T1, Rhesus macaque CD4-HIS (Acro Biosystems, Cat. CD4-C52H7) (rhesus macaque, UniProt P16003 26-390) (assay: BLI (Octet Red384); Ab on anti-mouse Fc (AMC) sensor; rhesus CD4-HIS 100/50/25 nM; global 1:1 fit;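 further: antibodies loaded at 10 µg/mL, an unrelated mouse-derived antibody served as internal reference, curves fit over association and dissociation phases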).
T1 construct: Bought reagent; also called Rhesus CD4; rhesus CD4-HIS; not shown: His tag
T1 sequence (P16003 26-390 limits assumed): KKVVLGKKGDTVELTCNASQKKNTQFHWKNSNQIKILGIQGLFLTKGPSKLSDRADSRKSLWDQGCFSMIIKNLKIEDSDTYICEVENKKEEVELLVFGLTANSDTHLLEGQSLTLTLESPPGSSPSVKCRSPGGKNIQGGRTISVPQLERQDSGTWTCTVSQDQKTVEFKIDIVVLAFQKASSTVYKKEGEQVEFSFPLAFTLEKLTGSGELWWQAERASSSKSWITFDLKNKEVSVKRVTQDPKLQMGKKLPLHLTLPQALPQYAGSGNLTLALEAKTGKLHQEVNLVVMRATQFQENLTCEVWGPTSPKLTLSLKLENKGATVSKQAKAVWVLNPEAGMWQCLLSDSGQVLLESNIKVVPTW

Kd | Response | koff | kon | Binder
18 nM | 0.14 | 0.0028 s⁻¹ | 150000 M⁻¹ s⁻¹ | 75110_07J02A (antibody, V domains shown, Tested as antibody purified from AlivaMab Mouse hybridoma supernatant (human variable domains, kappa; mouse Fc, captured on anti-mouse IgG Fc sensors); also called ADS75110 purified AMM Ab) VH: EVQLVESGGGLVQPGGSLRLSCAASGFTFSSYWMSWVRQAPGKGLEWVANIKEDGSEKYYVDSVKGRFTISRDNAKNSLYLQMNSLRAEDTAVYYCARDGSYSGYGMDVWGQGTTVTVSS VL: AIQMTQSPSSLSASVGDRVTITCRASQGIRNDLGWYQQKPGKAPKLLIYAASSLQSGVPSRFSGRGSGTDFALTISSLQPEDFATYYCLLDYNYPYTFGQGTRLEIK
5.1 nM | 0.15 | 0.00098 s⁻¹ | 190000 M⁻¹ s⁻¹ | 75110_08A13A (antibody, V domains shown, Tested as antibody purified from AlivaMab Mouse hybridoma supernatant (human variable domains, kappa; mouse Fc, captured on anti-mouse IgG Fc sensors); also called ADS75110 purified AMM Ab) VH: EVQLVESGGGLVQPGGSLRLSCAASGFIFSSYWMSWVRQAPGKGLEWVANIKQDGSEKYYMDSVKGRFTISRDNAKNSLYLQMNSLRAEDTAVYYCARDNSYYYYGMDVWGQGTTVTVSS VL: AIQMTQSPSSLSASVGDRVTITCRASQGIRDDLGWYQQKPGKAPKLLIFAASSLQSGVPSSFSGSGSGTDFTLTISSLQPEDFATYYCLHHYNYPYTFGQGTKLEIK
2.1 nM | 0.23 | 0.00033 s⁻¹ | 160000 M⁻¹ s⁻¹ | 75110_10K21A (antibody, V domains shown, Tested as antibody purified from AlivaMab Mouse hybridoma supernatant (human variable domains, kappa; mouse Fc, captured on anti-mouse IgG Fc sensors); also called ADS75110 purified AMM Ab) VH: EVQLVESGGGLVQPGGSLRLSCAASGFTFSSYWMTWVRQAPGKGLEWVANIKQDGSEKYYVDSVKGRFTISRDNAKNSLYLQMNSLRAEDTAVYYCVRDRYDALDIWGQGTMVTVSS VL: AIQMTQSPSSLSASVGDRVTITCRASQGIRNDLNWYQQKPGKAPKLLIYAASSLQSGVPSRFSGSGSGTDFTLTISSLQAEDFATYYCLKDYNYPYTFGQGTKLEIK
< 0.001 nM | 0.03 | < 1e-07 s⁻¹ | 13000 M⁻¹ s⁻¹ | 75110_07N04A (antibody, V domains shown, Tested as antibody purified from AlivaMab Mouse hybridoma supernatant (human variable domains, kappa; mouse Fc, captured on anti-mouse IgG Fc sensors); also called ADS75110 purified AMM Ab) VH: QVQLQESGPGLVKPSETLSLTCSVSGVSSTSFYWSWIRQPAGKGLDWIGRIYTSGSTNYNPSLKSRVTMSVDTSKNQFSLKLSSVTAADTAVYYCARDPGYSDAFAIWGQGTMVTVSS VL: not shown
7.8 nM | 0.13 | 0.00035 s⁻¹ | 45000 M⁻¹ s⁻¹ | 75110_06K03A (antibody, V domains shown, Tested as antibody purified from AlivaMab Mouse hybridoma supernatant (human variable domains, kappa; mouse Fc, captured on anti-mouse IgG Fc sensors); also called ADS75110 purified AMM Ab) VH: QVQLQESGPGLVKPSETLSLTCTVSGGSISTYYWSWIRQPAGKGLEWIGRINTSGSTTYNPSLKSRVTMSVDTSKNQFSLKLSSVTAADTAVYYCARELERYYYYGMDVWGQGTTVTVSS VL: DIQMTQSPSSLSASVGDRVTITCQASQDISNYLNWYQQKPGKAPKLLIYYASILETGVPSRFSGSGSGTDFTFTISSLQPEDIATYYCQQYDSLPLTFGGGTKVEIK
11 nM | 0.22 | 0.0026 s⁻¹ | 230000 M⁻¹ s⁻¹ | 75110_08F20A (antibody, V domains shown, Tested as antibody purified from AlivaMab Mouse hybridoma supernatant (human variable domains, kappa; mouse Fc, captured on anti-mouse IgG Fc sensors); also called ADS75110 purified AMM Ab) VH: QVQLQESGPGLVKPSETLSLTCSVSGGSISTYYWSWIRQPAGKGLEWIGRICTTENTNYNPSLKSRVTMSIDSSKNQFSLKLSSVTAADTAVYYCARDLERLNYYGMDVWGQGATVTVSS VL: DIQMTQSPSSLSASVGDRVTITCQASQDISKYLNWYQQKPGIAPKLLIYDASNLETGVPSRFSGSGSGTDFTFTISSLQPEDFATYYCQQYDSLPITFGQGTRLEIK
19 nM | 0.15 | 0.0041 s⁻¹ | 220000 M⁻¹ s⁻¹ | 75110_08G08A (antibody, V domains shown, Tested as antibody purified from AlivaMab Mouse hybridoma supernatant (human variable domains, kappa; mouse Fc, captured on anti-mouse IgG Fc sensors); also called ADS75110 purified AMM Ab) VH: QVQLQESGPGLVKPSETLSLTCSVSGGSISTYYWSWIRQPAGKGLEWIGRICTTENTNYNPSLKSRVTMSIDSSKNQFSLKLSSVTAADTAVYYCARDLERLNYYGMDVWGQGATVTVSS VL: DIQMTQSPSSLSASVGDRVTITCQASQDISNYLNWYQQKPGIAPKLLIYDASNLETGVPSRFSGSGSGTDFTFTISSLQPEDIATYYCQQYDSLPITFGQGTRLEIK
13 nM | 0.17 | 0.0033 s⁻¹ | 250000 M⁻¹ s⁻¹ | 75110_07B16A (antibody, V domains shown, Tested as antibody purified from AlivaMab Mouse hybridoma supernatant (human variable domains, kappa; mouse Fc, captured on anti-mouse IgG Fc sensors); also called ADS75110 purified AMM Ab) VH: QVQLQQWGAGLLKPSETLSLTCAVYGGSFSGYYWSWIRQSPGKGLEWIGEINQSGSTNYNPSLKSRVTISVDTSKDQFSLKLSSVTAADTAVYYCARVINWFDSWGQGSLVTVSS VL: DIQMTQSPSSVSASVGDRVTITCRASQGISSWLAWYQQKPGKAPKLLIYDASSFQSGVPSRFSGSGSGTDFTLTISSLQTDDFATYYCQQANSFPYTFGQGTKLEIK
3.5 nM | 0.11 | 0.0018 s⁻¹ | 530000 M⁻¹ s⁻¹ | 75110_11D03A (antibody, V domains shown, Tested as antibody purified from AlivaMab Mouse hybridoma supernatant (human variable domains, kappa; mouse Fc, captured on anti-mouse IgG Fc sensors); also called ADS75110 purified AMM Ab) VH: EVQLVESGGGLVQPGGSLRLSCAASGFTFSSYWMSWVRQAPGKGLEWVANINQDGNEKYYVDSVKGRFTISRDNAKNSLFLQMNSLRAEDTAVYYCAREGGQWLALDYWGQGALVTVSS VL: DIQMTQSPSSVSASVGDRVTITCRASQGISSWLAWYQQKPGKAPKFLISGASSLQSGVPSRFSGSGSGTDFTLTISSLQPEDFATYYCQQANSFPWTFGQGTKVEIK
21 nM | 0.16 | 0.0056 s⁻¹ | 270000 M⁻¹ s⁻¹ | 75110_12K21A (antibody, V domains shown, Tested as antibody purified from AlivaMab Mouse hybridoma supernatant (human variable domains, kappa; mouse Fc, captured on anti-mouse IgG Fc sensors); also called ADS75110 purified AMM Ab) VH: QVQLQQWGAGLLKPSETLSLTCAVSGGSFSGYYWSWIRQPPGKGLEWIGEINHSGSTNCNPSLKSRVTISVDTSNNQFSLKLSSVTAADTAVYYCARVLNYFDYWGQGTLVTVSS VL: DIQMTQSPSSVSASVGDRVTITCRASPDIANWLAWYQQKPGKAPELLIYAASSLQSGVPSRFSGSGSGTDFTLTISSLQPEDFATYFCQQANSFPLTFGGGTKVESK
